Measured values published in PMC4169579, “Proteolytic Activity of Prostate-Specific Antigen (PSA) towards Protein Substrates and Effect of Peptides Stimulating PSA Activity” (PLoS ONE, 2014).
“And” between values parts separate entries of the source, which are not always exact repeats. Equal values may be shown once.

Experiments:
[1] = biological target: T1, PSA (Homo sapiens, UniProt P07288); conditions: more than half of semenogelin I degraded; ref Malm and coworkers (2000), [16], [63]; cited from earlier work
T1 construct: from tissue; host or cells: pooled human seminal fluid
T1 sequence (P07288 25-261): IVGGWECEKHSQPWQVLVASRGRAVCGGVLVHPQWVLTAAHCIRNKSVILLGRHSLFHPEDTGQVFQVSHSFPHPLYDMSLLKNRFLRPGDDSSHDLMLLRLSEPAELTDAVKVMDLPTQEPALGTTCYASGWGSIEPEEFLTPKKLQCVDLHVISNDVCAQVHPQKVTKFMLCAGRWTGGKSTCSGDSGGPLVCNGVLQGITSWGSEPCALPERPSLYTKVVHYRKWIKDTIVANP
Method: In the present study, we compared the proteolytic activity of PSA towards several protein substrates. As shown previously, semenogelins are cleaved very effectively by PSA. Malm and coworkers (2000) reported that more than half of semenogelin I is degraded after 15 min incubation with PSA [16], [63] and we observed this after 11 min incubation. Proteolysis of the other protein substrates, i.e., fibronectin, IGFBP-3, galectin-3 and nidogen-1, took much longer, reflecting the high substrate specificity of PSA for semenogelins. […] However, the detailed mechanism of the antiangiogenic activity of PSA remains unclear. Some of the proteolytically produced fragments of extracellular matrix (ECM) proteins act as endogenous angiogenesis inhibitors and may mediate the antiangiogenic effect of PSA. […] Although plasminogen ...

[2] = biological target: T1, PSA; experiment: Proteolytic cleavage of protein substrates by PSA (SDS-PAGE, silver staining); type: biochemical; conditions: 37°C; for time for degradation of half of the intact protein: substrate 1 µM (0.5 µM semenogelin I)
Method: The major form of active PSA (isoform PSA-B) was purified from pooled human seminal fluid by immunoaffinity chromatography followed by anion exchange chromatography. Semenogelins I and II were isolated from human seminal fluid as previously described, but instead of alkylating the proteins, the reducing agent 30 mM dithiothreitol (Sigma-Aldrich, St. Louis, MO) was included in all buffers during purification. Semenogelins were stored in the purification buffer containing 2 M urea and 5 mM EDTA at −70°C. Prior to cleavage by PSA, the buffer was exchanged to 50 mM Tris, pH 7.7, containing 0.15 M NaCl (TBS), with Amicon Ultra centrifugal filter units (MW cut-off 30 kDa) (Millipore, Cork, Ireland) at 4°C, and protein concentration was determined by measuring absorbance at 280 nm.
Protein LoBind tubes (Eppendorf AG, Hamburg, Germany) were used in all protein degradation experiments.
PSA (0.2–1 µM) and 0.5–1 µM of each protein substrate were incubated at 37°C for 22 h in TBS buffer. During the incubation, samples of 15 µl were taken at different time points: 0 min, 10 min, 30 min, 2 h, 5 h and 22 h, and stored at −20°C before further analysis.
Immediately after each incubation, reducing 4× SDS-loading buffer (8% SDS), containing 1 M β-mercaptoethanol or 75 mM dithiothreitol, was added to each sample and proteins were denatured at 70°C for 10 min. The samples were immediately analyzed by SDS-PAGE or frozen at −20°C. Frozen samples were heated again at 70°C before loading on the gel. The cleavage of protein substrates by PSA, i.e., the disappearance of the full-length protein bands, was quantified from scanned images of silver stained gels by the measurement of relative optical densities of the protein bands using ImageJ [40].
Proteins were separated using the XCell SureLock Mini Cell system and pre-cast NuPAGE Novex 4–12% Bis-Tris Gels (both from Invitrogen, Carlsbad, CA). MES running buffer, pH 7.3, containing 50 mM MES [2-(N-morpholino)ethanesulfonic acid] (Sigma-Aldrich), 50 mM Tris base, 3.5 mM SDS and 1 mM EDTA was used. Dithiothreitol (0.5 mM) (Sigma-Aldrich) was added to the cathode buffer chamber.
Proteins were visualized either by silver staining or Western blotting. For silver staining (modified from), the gel was fixed for one hour at room temperature in 30% ethanol, containing 0.5% acetic acid, and rinsed with 20% ethanol and water for 10 min each. Then the gel was sensitized with 0.02% sodium thiosulfate for 1 min and rinsed twice with water. After 30 min incubation in 0.2% AgNO3, the gel was rinsed briefly with water and proteins were detected with development solution, containing 700 µl/l of 37% formaldehyde, 0.001% sodium thiosulfate and 3% anhydrous Na2CO3. The development reaction was finished with stop solution containing 5% Tris and 2.5% acetic acid.

[3] = test system: HUVECs; experiment: HUVEC tube formation assay on Matrigel; type: cell-based, human; conditions: two separate experiments
Method: Human umbilical vein endothelial cells (HUVECs) were isolated from umbilical cord veins and grown in Endothelial Cell Growth Medium (Promocell, Heidelberg, Germany) with 2% Ultroser G BioSepra serum substitute (PALL BioSepra, Cergy, France) and growth factors EGF and bFGF. For tube formation, HUVECs were grown on top of Matrigel (BD Biosciences) as described previously, [29].
To study the effect of PSA-cleaved protein fragments, 0.08 µM nidogen-1 or 0.4 µM galectin-3 (10 µg/ml each) were first incubated with 1 µM PSA for 24 h at 37°C in PBS (Lonza). Then PSA activity was blocked by one-hour incubation at room temperature with 2 µM monoclonal antibody 5C7 [38]. The mixture containing nidogen-1 or galectin-3 fragments with PSA blocked by antibody or the same amount of intact nidogen-1 or galectin-3 were added together with the cells onto gelled Matrigel and the cells were allowed to form tubular networks for 20 h. Control wells contained either PBS or 1 µM PSA. After overnight incubation, cell culture medium was collected from PBS and PSA control wells for SDS-PAGE and Western blotting. Images of tubular networks (100×magnification) were taken using an Axiovert 200 inverted light microscope connected to an AxioCam digital camera and visualized by AxioVision software (all from Zeiss, Göttingen, Germany).

[4] = biological target: T1, PSA; experiment: N-terminal sequencing of nidogen-1 fragments generated by PSA; type: biochemical; conditions: recombinant human nidogen-1, 1 µM, 2 µM PSA, 22 h, 37°C; Edman degradation; UniProt P14543 numbering
Method: For N-terminal sequencing, 1 µM (10 µg) nidogen-1 was first incubated with 2 µM (5 µg) PSA for 22 h at 37°C. Then the resulting protein fragments were separated by SDS-PAGE and electroblotted onto polyvinylidene-difluoride (PVDF) membrane. After staining with Coomassie Brilliant Blue the protein fragments were directly sequenced by Edman-degradation using the Procise 494A Sequencer (Perkin Elmer Applied Biosystems, Foster City, CA).

[5] = 0.2 µM PSA, TBS, disappearance of full-length band

time for degradation of half of the intact protein [2, 5] [min]	time for degradation of 50% of the protein ([2]; 0.2 µM PSA, 1 µM substrate, TBS, disappearance of full-length band) [h]	size of nidogen-1 fragments formed by PSA ([2]; 1 µM PSA, 0.5 µM recombinant human nidogen-1, 20 h)	cleavage site of PSA in nidogen-1 [4]	Molecule	incubation time with more than half degraded by PSA [1] [min]	effect on tube formation, PSA-generated fragments ([3]; 10 µg/ml (0.08 µM nidogen-1, 0.4 µM galectin-3) precleaved by 1 µM PSA 24 h, PSA blocked by mAb 5C7, 20 h)	effect on tube formation, full-length protein ([3]; 10 µg/ml (0.08 µM nidogen-1, 0.4 µM galectin-3), 20 h, HUVECs on Matrigel)
11				semenogelin I: isolated from human seminal fluid (protein, UniProt P04279 24-462, looked up) Semenogelin-1: QKGGSKGRLPSEFSQFPHGQKGQHYSGQKGKQQTESKGSFSIQYTYHVDANDHDQSRKSQQYDLNALHKTTKSQRHLGGSQQLLHNKQEGRDHDKSKGHFHRVVIHHKGGKAHRGTQNPSQDQGNSPSGKGISSQYSNTEERLWVHGLSKEQTSVSGAQKGRKQGGSQSSYVLQTEELVANKQQRETKNSHQNKGHYQNVVEVREEHSSKVQTSLCPAHQDKLQHGSKDIFSTQDELLVYNKNQHQTKNLNQDQQHGRKANKISYQSSSTEERRLHYGENGVQKDVSQSSIYSQTEEKAQGKSQKQITIPSQEQEHSQKANKISYQSSSTEERRLHYGENGVQKDVSQRSIYSQTEKLVAGKSQIQAPNPKQEPWHGENAKGESGQSTNREQDLLSHEQKGRHQHGSHGGLDIVIIEQEDDSDRHLAQHLNNDRNPLFT	15		
	22	85 kDa and 55 kDa	GVVF^380 ↓ SYNTD	nidogen-1: recombinant human nidogen-1, linker protein in the basement membrane (protein, UniProt P14543 29-1247, looked up) Nidogen-1: LSRQELFPFGPGQGDLELEDGDDFVSPALELSGALRFYDRSDIDAVYVTTNGIIATSEPPAKESHPGLFPPTFGAVAPFLADLDTTDGLGKVYYREDLSPSITQRAAECVHRGFPEISFQPSSAVVVTWESVAPYQGPSRDPDQKGKRNTFQAVLASSDSSSYAIFLYPEDGLQFHTTFSKKENNQVPAVVAFSQGSVGFLWKSNGAYNIFANDRESVENLAKSSNSGQQGVWVFEIGSPATTNGVVPADVILGTEDGAEYDDEDEDYDLATTRLGLEDVGTTPFSYKALRRGGADTYSVPSVLSPRRAATERPLGPPTERTRSFQLAVETFHQQHPQVIDVDEVEETGVVFSYNTDSRQTCANNRHQCSVHAECRDYATGFCCSCVAGYTGNGRQCVAEGSPQRVNGKVKGRIFVGSSQVPIVFENTDLHSYVVMNHGRSYTAISTIPETVGYSLLPLAPVGGIIGWMFAVEQDGFKNGFSITGGEFTRQAEVTFVGHPGNLVIKQRFSGIDEHGHLTIDTELEGRVPQIPFGSSVHIEPYTELYHYSTSVITSSSTREYTVTEPERDGASPSRIYTYQWRQTITFQECVHDDSRPALPSTQQLSVDSVFVLYNQEEKILRYALSNSIGPVREGSPDALQNPCYIGTHGCDTNAACRPGPRTQFTCECSIGFRGDGRTCYDIDECSEQPSVCGSHTICNNHPGTFRCECVEGYQFSDEGTCVAVVDQRPINYCETGLHNCDIPQRAQCIYTGGSSYTCSCLPGFSGDGQACQDVDECQPSRCHPDAFCYNTPGSFTCQCKPGYQGDGFRCVPGEVEKTRCQHEREHILGAAGATDPQRPIPPGLFVPECDAHGHYAPTQCHGSTGYCWCVDRDGREVEGTRTRPGMTPPCLSTVAPPIHQGPAVPTAVIPLPPGTHLLFAQTGKIERLPLEGNTMRKTEAKAFLHVPAKVIIGLAFDCVDKMVYWTDITEPSIGRASLHGGEPTTIIRQDLGSPEGIAVDHLGRNIFWTDSNLDRIEVAKLDGTQRRVLFETDLVNPRGIVTDSVRGNLYWTDWNRDNPKIETSYMDGTNRRILVQDDLGLPNGLTFDAFSSQLCWVDAGTNRAECLNPSQPSRRKALEGLQYPFAVTSYGKNLYFTDWKMNSVVALDLAISKETDAFQPHKQTRLYGITTALSQCPQGHNYCSVNNGGCTHLCLATPGSRTCRCPDNTLGVDCIEQK		did not have any effect on tube formation	did not have any effect on tube formation
80				semenogelin II: isolated from human seminal fluid (protein, UniProt Q02383 24-582, looked up) Semenogelin-2: QKGGSKGQLPSGSSQFPHGQKGQHYFGQKDQQHTKSKGSFSIQHTYHVDINDHDWTRKSQQYDLNALHKATKSKQHLGGSQQLLNYKQEGRDHDKSKGHFHMIVIHHKGGQAHHGTQNPSQDQGNSPSGKGLSSQCSNTEKRLWVHGLSKEQASASGAQKGRTQGGSQSSYVLQTEELVVNKQQRETKNSHQNKGHYQNVVDVREEHSSKLQTSLHPAHQDRLQHGPKDIFTTQDELLVYNKNQHQTKNLSQDQEHGRKAHKISYPSSRTEERQLHHGEKSVQKDVSKGSISIQTEEKIHGKSQNQVTIHSQDQEHGHKENKISYQSSSTEERHLNCGEKGIQKGVSKGSISIQTEEQIHGKSQNQVRIPSQAQEYGHKENKISYQSSSTEERRLNSGEKDVQKGVSKGSISIQTEEKIHGKSQNQVTIPSQDQEHGHKENKMSYQSSSTEERRLNYGGKSTQKDVSQSSISFQIEKLVEGKSQIQTPNPNQDQWSGQNAKGKSGQSADSKQDLLSHEQKGRYKQESSESHNIVITEHEVAQDDHLTQQYNEDRNPIST			
